Protein stability index data for 94 variants are collected here from the supplement of paper PMC10567573.

B1: HMOX1 (parent)
chain: YHIYVALEEEIERNKESPVFAPVY
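Note: lentivirally expressed fusions sorted by FACS into six bins by GFP to DsRed ratio, PSI derived from sequencing read proportions per bin multiplied by bin number.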

Variants of B1 are the subject of this series. The experiment in a line: protein stability index of a GFP-peptide fusion (GPS, HEK-293T) (PSI 1-6); higher = more stable. The note with it: c terminus: a fixed tail appended.
On to YAIYVALEEEIERNKESPVFAPVY [H2A], for which the protein stability index came to 2.34.
The result for YHIYHALEEEIERNKESPVFAPVY [V5H] reads 2.34; that for YHIYLALEEEIERNKESPVFAPVY [V5L], 2.29.
In the case of YHIYAALEEEIERNKESPVFAPVY [V5A] it was 3.79; in that of YHIYFALEEEIERNKESPVFAPVY [V5F], 1.63; in that of YHIYKALEEEIERNKESPVFAPVY [V5K], 3.47.
The result for YHIYWALEEEIERNKESPVFAPVY [V5W] reads 2.12; that for YHIYYALEEEIERNKESPVFAPVY [V5Y], 1.47; that for YHRYVALEEEIERNKESPVFAPVY [I3R], 2.43.
YHLYVALEEEIERNKESPVFAPVY [I3L]: the protein stability index is 1.92.
The result for YHFYVALEEEIERNKESPVFAPVY [I3F] reads 2.91.
In the case of YHTYVALEEEIERNKESPVFAPVY [I3T] it was 1.92; in that of YHAYVALEEEIERNKESPVFAPVY [I3A], 1.42.
In the case of YHSYVALEEEIERNKESPVFAPVY [I3S] it was 2.26; in that of YHGYVALEEEIERNKESPVFAPVY [I3G], 2.77.
As for YHYYVALEEEIERNKESPVFAPVY [I3Y], the protein stability index worked out at 1.91.
As to YHIYVALEEEIERNKESPVFAPVA [Y24A], the protein stability index turned out to be 3.11.
In the case of YHIYVALEEEIERNKESPVFAPVF [Y24F] it was 1.78; in that of YHIYVALEEEIERNKESPVFAPVM [Y24M], 2.22; in that of YHIYVALEEEIERNKESPVFAPVH [Y24H], 2.48.
In the case of YHIYVALEEEIERNKESPVFAPVQ [Y24Q] it was 3.09; in that of YHIYVALEEEIERNKESPVFAPVK [Y24K], 2.69.
In the case of YHIYVALEEEIERNKESPVFAPVI [Y24I], the protein stability index stood at 2.49.
The result for YHIYVALEEEIERNKESPVFAPVV [Y24V] reads 2.51; that for YHIYVALEEEIERNKESPVFAPVG [Y24G], 2.83.
In the case of YHIYVALEEEIERNKESPVFAPVS [Y24S] it was 2.84; in that of YHIYVAWEEEIERNKESPVFAPVY [L7W], 2.2.
The result for YHIYVAYEEEIERNKESPVFAPVY [L7Y] reads 2.02; that for YHIYVAHEEEIERNKESPVFAPVY [L7H], 1.49; that for YHIYVAVEEEIERNKESPVFAPVY [L7V], 2.93.
Turning to YHIYVASEEEIERNKESPVFAPVY [L7S], the protein stability index turned out to be 1.56.
For the variant YHIYVAGEEEIERNKESPVFAPVY [L7G], the protein stability index worked out at 2.48.
For YHIYVAPEEEIERNKESPVFAPVY [L7P], the protein stability index is 1.59.
As to YHIYVALLEEIERNKESPVFAPVY [E8L], the protein stability index stood at 2.49.
The result for YHIYVALKEEIERNKESPVFAPVY [E8K] reads 2.07.
The result for YHIYVALFEEIERNKESPVFAPVY [E8F] reads 2.43.
In the case of YHIYVALNEEIERNKESPVFAPVY [E8N] it was 1.94.
For YHIYVALREEIERNKESPVFAPVY [E8R], the protein stability index is 2.42.
In the case of YHIYVALPEEIERNKESPVFAPVY [E8P] it was 2.49.
In the case of YHIYVALEEEIERNKESPVFAPMY [V23M] it was 1.89.
The result for YHIYVALEEEIERNKESPVFAPDY [V23D] reads 2.69; that for YHIYVALEEEIERNKESPVFAPCY [V23C], 2.12.
Turning to YHIYVALEEEIERNKESPVFAPRY [V23R], the protein stability index came to 2.87.
For the variant YHIYVALEEEIERNKESPVFAPHY [V23H], the protein stability index came to 1.84.
Take YHIYVALEEEIERNKESPVFAPKY [V23K]: the protein stability index worked out at 2.09.
The result for YHIYVALEEEIERNKESPVFAPSY [V23S] reads 1.85.
The result for YHIYVALEEEIERNKESPVFAPIY [V23I] reads 1.87.
The result for YHIYVALEEEIERNKESPVFAPPY [V23P] reads 2.69; that for YHIYVALEEEIERNKESPVFAPGY [V23G], 2.1.
YHIYVILEEEIERNKESPVFAPVY [A6I]: the protein stability index worked out at 2.02.
The result for YHIYVFLEEEIERNKESPVFAPVY [A6F] reads 3.88; that for YHIYVSLEEEIERNKESPVFAPVY [A6S], 1.74.
The result for YHIYVQLEEEIERNKESPVFAPVY [A6Q] reads 2.42; that for YHIYVMLEEEIERNKESPVFAPVY [A6M], 2; that for YHIYVTLEEEIERNKESPVFAPVY [A6T], 1.82.
As to YHIYVALEEEIERNKESPVWAPVY [F20W], the protein stability index came to 2.41.
In the case of YHIYVALEEEIERNKESPVCAPVY [F20C] it was 3.24; in that of YHIYVALEEEIERNKESPVDAPVY [F20D], 2.95; in that of YHIYVALEEEIERNKESPVVAPVY [F20V], 3.06.
In the case of YHIYVALEEEIERNKESPVAAPVY [F20A] it was 2.41.
The result for YHIYVALEEEIERNKESPVQAPVY [F20Q] reads 2.42.
Regarding DHIYVALEEEIERNKESPVFAPVY [Y1D], the protein stability index came out at 4.59.
The result for NHIYVALEEEIERNKESPVFAPVY [Y1N] reads 3.93; that for WHIYVALEEEIERNKESPVFAPVY [Y1W], 2.59.
As for PHIYVALEEEIERNKESPVFAPVY [Y1P], the protein stability index turned out to be 2.46.
For the variant LHIYVALEEEIERNKESPVFAPVY [Y1L], the protein stability index was determined as 1.64.
The result for RHIYVALEEEIERNKESPVFAPVY [Y1R] reads 2.73.
As to GHIYVALEEEIERNKESPVFAPVY [Y1G], the protein stability index was determined as 2.26.
In the case of SHIYVALEEEIERNKESPVFAPVY [Y1S], the protein stability index is 2.81.
The result for IHIYVALEEEIERNKESPVFAPVY [Y1I] reads 3.18.
The result for AHIYVALEEEIERNKESPVFAPVY [Y1A] reads 2.6; that for YHIYVALEEEIERNKESNVFAPVY [P18N], 2.36; that for YHIYVALEEEIERNKESRVFAPVY [P18R], 1.98.
The result for YHIYVALEEEIERNKESHVFAPVY [P18H] reads 2.23.
On to YHIYVALEEEIERNKESAVFAPVY [P18A], for which the protein stability index worked out at 2.14.
As for YHIYVALEEEIERNKESQVFAPVY [P18Q], the protein stability index was 1.61.
The result for YHIYVALEEEIERNKESKVFAPVY [P18K] reads 2.03.
The result for YHIYVALEEEIERNKESVVFAPVY [P18V] reads 1.59; that for YHIYVALEEEIERNKESMVFAPVY [P18M], 1.75.
In the case of YHIYVALEEEIERNKESLVFAPVY [P18L] it was 1.53.
On to YHIYVALEEEIERNKESDVFAPVY [P18D], for which the protein stability index came to 2.3.
Take YHIYVALEEEIERNKESIVFAPVY [P18I]: the protein stability index came out at 1.49.
The result for YHIYVALEEEIERNKFSPVFAPVY [E16F] reads 2.84; that for YHIYVALEEEIERNKDSPVFAPVY [E16D], 1.59.
In the case of YHIYVALEEEIERNKSSPVFAPVY [E16S] it was 2.04; in that of YHIYVALEEEIERNKRSPVFAPVY [E16R], 1.8.
The result for YHIYVALEEEIERNKESPVFAHVY [P22H] reads 1.98; that for YHIYVALEEEIERNKESPVFAWVY [P22W], 1.87; that for YHIYVALEEEIERNKESPVFAAVY [P22A], 2.12.
For YHIYVALEEEIERNKESPVFAIVY [P22I], the protein stability index was 2.61.
As to YHIYVALEEEIERNKESPVFACVY [P22C], the protein stability index came to 1.54.
In the case of YHIYVALEEEIERNKESPVFAVVY [P22V] it was 3.15.
The result for YHIYVALEEEIERNKESPVFATVY [P22T] reads 2.1; that for YHIYVALEEEIERNKESPVFANVY [P22N], 1.68.
